Conditions: Halorhodospira halophila, Thermal, DSC, reversible: yes, whole UniProt chain shown

B1: High-potential iron-sulfur protein isozyme 1 wild type, P04168 (protein)
chain: EPRAEDGHAHDYVNEAADASGHPRYQEGQLCENCAFWGEAVQDGWGRCTHPDFDEVLVKAEGWCSVYAPAS
Tm (pH 7, MOPS 20 mM): 67.7 °C | Tm (pH 9, TAPS 20 mM): 66.4 °C | Tm (pH 10, CAPS 20 mM): 66.5 °C | Tm (pH 11, piperidine 40 mM): 50.3 °C

From FireProtDB (doi:10.1002/pro.5560041213)
